According to patent US8956612B2, “Peptide associated with rheumatic fever (PARF) and its use as a diagnostic marker” (Helmholtz-Zentrum für Infektionsforschung GmbH, priority 2006, dated 2015):

Columns and labels:
collagen IV [1] = biological target: T1, collagen IV (Homo sapiens, UniProt P02462+P08572); assay: Surface plasmon resonance, FOG fragments on immobilized collagen IV; assay type: binding; conditions: SPR; 12.5, 25, 50, 100 μg/ml
T1 construct: purchased Sigma; host or cells: human placenta (tissue-derived)
Experimental: Site directed mutagenesis was performed on the plasmid pGEX-6P-1-FOGfl that coded for the GST-FOGfl fusion protein. E. coli clones containing the plasmids with the desired substitutions were generated using the GeneTailor™ Site Directed Mutagenesis System (Invitrogen) following the manufacturers recommendations. The tagged proteins from E. coli lysates were bound to glutathione sepharose 4B (GE Healthcare) and eluted with 10 mM reduced L-glutathione (Sigma) in 50 mM TrisHCl (pH=8.0) after washing the matrix with PBS. Alternatively, for SPR measurements of FOG1-B and FOG1-A the GST-tag was removed by digesting the proteins with PreScission™ protease (GE Healthcare) while bound to the affinity matrix, which eluted the untagged FOG proteins.
Protein interactions were studied in a BIAcore 2000 system (BIAcore AB) using 10 mM HEPES, 100 mM NaCl, pH=7.4 as running buffer. A CM5 sensor chip was activated by a 4 min injection of 0.05M N-hydroxysuccinimid, 0.2 M N-ethyl-N-(3-dimethylaminopropyl)-carbodiimide hydrochloride in water. Collagen IV from human placenta (Sigma, 1 mg/ml in 0.1M NaAc) was diluted 1:25 in 10 mM NaAc (pH=5.2). Immediate injection of 3 μl at a flow rate of 5 μl/min lead to immobilization of 400 to 550 response units (RU) of collagen IV. Residual reactive groups were inactivated by 6 min injection of 1 M ethanolamine, 0.1 M NaHCO3, 0.5 M NaCl, 5 mM EDTA, pH=8.0. […]

collagen IV [2] = assay: Immunization of mice, anti-collagen IV antibody titer by ELISA; assay type: in vivo, BALB/c mice; conditions: sera of immunized mice compared to the buffer control
Experimental: Pathogen free 8 week old female BALB/c mice were immunized intra-peritoneally with an emulsion of 25-30 μg recombinant purified protein in 50 μl PBS and 50 μl Freund's incomplete adjuvant per dose at day 1, 7 and 14. Control mice were injected with 50 μl PBS and 50 μl Freund's incomplete adjuvant per dose. At day 21, serum samples of each group were collected and tested in ELISA. To absorb FOG reactive antibodies, 10 μl serum pool was diluted 1:50 in PBS, and incubated for 1 h with 1 mg GST-FOGfl protein immobilized on glutathione sepharose 4B. Antibodies that bound to the affinity matrix were removed by centrifugation. The supernatant was subjected to ELISA analysis.
To determine anti-collagen CIV antibody titers, 96 well plates (Greiner, Frickenhausen, Germany) were coated over night at 4° C. with anti-human collagen IV rabbit polyclonal antibody (Progen, Heidelberg, Germany) diluted 1:100 in 0.1 M NaHCO3 (pH=9.6), blocked with 2% bovine serum albumin (BSA) in PBST and incubated with collagen IV (2 μg/ml in PBS) for 1 h at 37° C. […] After washing, bound antibodies were detected using suitable horseradish peroxidase coupled secondary anti-serum (goat anti-mouse IgG,M, Jackson Laboratories; rabbit anti-human IgG, A, M, Sigma-Aldrich) and 2,2-azino-di-[3-ethylbenzthiazoline sulfonate]diammonium salt (ABTS tablets, Boehringer, Mannheim, Germany) as substrate. […]

T1 sequence (P02462 173-1669): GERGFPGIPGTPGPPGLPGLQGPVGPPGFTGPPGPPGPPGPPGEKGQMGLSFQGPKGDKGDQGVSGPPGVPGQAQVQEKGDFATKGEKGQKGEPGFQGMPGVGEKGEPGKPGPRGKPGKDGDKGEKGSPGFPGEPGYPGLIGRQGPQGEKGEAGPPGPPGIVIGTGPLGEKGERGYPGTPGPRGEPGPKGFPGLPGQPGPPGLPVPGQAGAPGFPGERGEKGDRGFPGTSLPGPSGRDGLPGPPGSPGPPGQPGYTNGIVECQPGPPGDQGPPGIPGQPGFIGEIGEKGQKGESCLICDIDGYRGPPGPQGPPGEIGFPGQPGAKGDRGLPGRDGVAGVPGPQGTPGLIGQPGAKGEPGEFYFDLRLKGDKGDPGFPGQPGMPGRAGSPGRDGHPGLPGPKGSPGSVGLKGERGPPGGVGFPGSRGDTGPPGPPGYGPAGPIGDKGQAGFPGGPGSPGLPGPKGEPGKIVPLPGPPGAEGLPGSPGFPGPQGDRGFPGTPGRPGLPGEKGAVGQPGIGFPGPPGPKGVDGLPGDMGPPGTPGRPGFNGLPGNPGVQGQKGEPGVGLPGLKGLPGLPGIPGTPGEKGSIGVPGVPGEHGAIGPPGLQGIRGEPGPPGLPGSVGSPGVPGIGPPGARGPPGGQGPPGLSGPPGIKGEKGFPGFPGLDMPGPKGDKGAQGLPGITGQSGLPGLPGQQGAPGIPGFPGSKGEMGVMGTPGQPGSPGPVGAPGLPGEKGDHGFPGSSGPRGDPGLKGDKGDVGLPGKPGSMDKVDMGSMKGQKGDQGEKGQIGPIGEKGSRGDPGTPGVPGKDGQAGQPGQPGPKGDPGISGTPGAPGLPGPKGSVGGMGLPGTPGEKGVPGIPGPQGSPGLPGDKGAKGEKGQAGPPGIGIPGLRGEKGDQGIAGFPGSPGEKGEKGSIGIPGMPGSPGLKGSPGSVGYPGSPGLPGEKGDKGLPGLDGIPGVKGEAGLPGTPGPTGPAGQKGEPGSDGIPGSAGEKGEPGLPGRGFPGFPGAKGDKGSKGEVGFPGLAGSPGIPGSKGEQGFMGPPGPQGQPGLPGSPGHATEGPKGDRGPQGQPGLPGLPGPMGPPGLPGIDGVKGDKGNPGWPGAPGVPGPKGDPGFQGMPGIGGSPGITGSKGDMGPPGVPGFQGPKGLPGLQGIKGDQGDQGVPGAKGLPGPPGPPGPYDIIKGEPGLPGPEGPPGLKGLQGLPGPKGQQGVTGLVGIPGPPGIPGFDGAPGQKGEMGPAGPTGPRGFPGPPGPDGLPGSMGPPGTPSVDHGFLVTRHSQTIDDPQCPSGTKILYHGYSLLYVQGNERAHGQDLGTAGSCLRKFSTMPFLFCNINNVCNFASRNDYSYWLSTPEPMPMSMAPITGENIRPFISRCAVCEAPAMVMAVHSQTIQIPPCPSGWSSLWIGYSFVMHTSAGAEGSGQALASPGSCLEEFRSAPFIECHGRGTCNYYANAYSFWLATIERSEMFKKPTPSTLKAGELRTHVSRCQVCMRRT
T1 sequence (P08572 184-1712): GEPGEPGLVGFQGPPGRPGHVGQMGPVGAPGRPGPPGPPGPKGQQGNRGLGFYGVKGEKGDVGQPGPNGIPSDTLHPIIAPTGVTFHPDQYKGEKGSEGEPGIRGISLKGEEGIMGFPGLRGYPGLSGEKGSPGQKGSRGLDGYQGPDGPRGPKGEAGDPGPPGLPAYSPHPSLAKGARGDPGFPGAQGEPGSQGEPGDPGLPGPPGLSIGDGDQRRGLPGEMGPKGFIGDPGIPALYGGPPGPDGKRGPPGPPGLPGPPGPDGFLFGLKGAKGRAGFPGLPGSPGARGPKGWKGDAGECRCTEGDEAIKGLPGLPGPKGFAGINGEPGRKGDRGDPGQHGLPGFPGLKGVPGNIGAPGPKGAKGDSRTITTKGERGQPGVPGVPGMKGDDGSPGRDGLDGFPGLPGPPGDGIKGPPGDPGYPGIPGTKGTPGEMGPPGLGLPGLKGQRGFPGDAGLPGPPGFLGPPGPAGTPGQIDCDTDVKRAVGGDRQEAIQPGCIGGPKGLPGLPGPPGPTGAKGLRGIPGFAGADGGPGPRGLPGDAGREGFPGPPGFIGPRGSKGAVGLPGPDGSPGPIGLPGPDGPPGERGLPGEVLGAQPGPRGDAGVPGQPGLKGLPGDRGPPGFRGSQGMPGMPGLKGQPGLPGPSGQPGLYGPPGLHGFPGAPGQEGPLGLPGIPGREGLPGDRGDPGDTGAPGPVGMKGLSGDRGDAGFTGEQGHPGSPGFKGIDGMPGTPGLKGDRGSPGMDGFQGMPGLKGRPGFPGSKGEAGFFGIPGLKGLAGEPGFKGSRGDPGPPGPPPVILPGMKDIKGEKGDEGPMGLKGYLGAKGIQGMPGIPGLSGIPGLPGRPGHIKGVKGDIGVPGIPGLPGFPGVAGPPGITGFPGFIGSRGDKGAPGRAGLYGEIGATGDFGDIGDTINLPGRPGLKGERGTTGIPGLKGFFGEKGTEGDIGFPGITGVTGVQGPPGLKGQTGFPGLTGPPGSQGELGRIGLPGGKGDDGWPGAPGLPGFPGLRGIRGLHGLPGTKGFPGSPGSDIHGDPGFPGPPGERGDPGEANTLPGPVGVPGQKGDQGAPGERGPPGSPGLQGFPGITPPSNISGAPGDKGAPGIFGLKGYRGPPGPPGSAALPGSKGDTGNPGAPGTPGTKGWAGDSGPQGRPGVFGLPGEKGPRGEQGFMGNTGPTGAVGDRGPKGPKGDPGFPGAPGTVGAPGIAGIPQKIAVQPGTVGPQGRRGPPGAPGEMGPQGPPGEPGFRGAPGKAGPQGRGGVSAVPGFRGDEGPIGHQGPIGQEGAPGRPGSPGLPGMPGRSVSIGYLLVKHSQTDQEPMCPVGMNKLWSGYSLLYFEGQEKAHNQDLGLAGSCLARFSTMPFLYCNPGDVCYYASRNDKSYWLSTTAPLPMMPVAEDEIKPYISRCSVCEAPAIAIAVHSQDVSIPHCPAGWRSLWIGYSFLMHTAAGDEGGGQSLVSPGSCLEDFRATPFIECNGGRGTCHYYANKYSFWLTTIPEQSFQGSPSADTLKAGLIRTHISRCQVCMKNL

B1: FOG1-A: recombinant protein, the first 134 amino acids of the mature FOG protein (protein, listed as Streptococcus sp.)
chain: DRWKAQTEEARTDKLIAGFANLDADVTNLGKMMDELQKLKDFSKQNNSIGEYARYLQKLNDQFQEYYEQVVGDDSRRVLAKELAKNTELNEKLSELSTTSQALAKELQEQKENYDLVK
Question: What does the source list for B1?
Answer: interaction with immobilized collagen IV (collagen IV [1]): concentration dependent interaction; titers of anti-collagen antibodies in ELISA (collagen IV [2]): Substantially higher titers
